These results are taken from patent publication US20250216395A1 (ATYR PHARMA, published 2025).

To fix the notation:
B1: aNRP2-36v2 (antibody, V domains shown)
VH: ELQLQQSGPELVKPGASVKISCKASGYSFTDYNMNWVKQSNGKSLEWIGVINPKSGTTVYNQKFKGKATLTVDQSSSTAYMQLNSLTSEDSAVYYCARADSSGGCWGQGTTLTVSS
VL: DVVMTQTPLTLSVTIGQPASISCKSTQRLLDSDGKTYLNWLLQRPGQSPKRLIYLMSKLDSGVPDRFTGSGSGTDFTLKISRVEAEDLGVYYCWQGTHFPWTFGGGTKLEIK
notes: Three purification lots were tested; also called antibody aNRP2-36v2; anti-NRP2 antibody

One assay concerns the target T1, NRP1v2 (22-602) (human, UniProt O14786 22-602).
T1 construct: Recombinant protein; also called human NRP1
T1 sequence: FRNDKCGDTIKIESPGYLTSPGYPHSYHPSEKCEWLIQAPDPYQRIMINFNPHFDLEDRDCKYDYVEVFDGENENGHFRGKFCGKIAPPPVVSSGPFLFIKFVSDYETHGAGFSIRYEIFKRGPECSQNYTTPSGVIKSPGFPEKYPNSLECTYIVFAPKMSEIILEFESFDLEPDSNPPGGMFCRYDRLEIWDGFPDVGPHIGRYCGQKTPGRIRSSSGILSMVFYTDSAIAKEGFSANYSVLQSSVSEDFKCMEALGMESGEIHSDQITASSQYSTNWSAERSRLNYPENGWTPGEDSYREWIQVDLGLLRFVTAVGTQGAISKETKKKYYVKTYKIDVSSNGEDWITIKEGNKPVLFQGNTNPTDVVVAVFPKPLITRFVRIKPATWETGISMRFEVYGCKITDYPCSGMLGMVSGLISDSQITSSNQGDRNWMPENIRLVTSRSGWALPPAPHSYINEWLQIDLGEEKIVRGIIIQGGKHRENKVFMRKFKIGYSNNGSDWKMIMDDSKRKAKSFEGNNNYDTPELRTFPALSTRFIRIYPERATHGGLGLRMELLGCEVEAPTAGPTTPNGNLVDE
In words: Western blot, denatured recombinant protein with or without 50 mM DTT. The method, then:
To characterize the binding specificity of antibody aNRP2-36v2 to different denatured isoforms of NRP2 its binding specificity was tested via western blot. In addition to assessing the relative binding to NRP2a and NRP2b, cross-reactivity to mouse and rat NRP2 were also evaluated, as well as non-specific binding to NRP1. The proteins tested via Western were NRP2v2 (23-855) (SEQ ID NO: 14), NRP2v5 (23-832) (SEQ ID NO: 27), mouse NRP2v2 (23-855) (SEQ ID NO: 21), rat NRP2×2 (23-854) (SEQ ID NO: 22), and NRP1v2 (22-602) (SEQ ID NO: 24).
25 ng of each recombinant protein was denatured for 10 minutes at 70° C. with 1×LDS (ThermoFisher, NP0007) with or without 50 mM DTT and separated on a 4-12% Bis-Tris Protein Gel (ThermoFisher, NP0335) in 1×MOPS buffer (ThermoFisher, NP000102). The gel was then transferred to a nitrocellulose membrane (Fisher, cat. #IB23001) using an iBlot2 (Fisher, cat. #IB21001) for 7 min at 20V. The membrane was blocked for 1 hour using a 5% milk 0.05% TBST solution, followed by 1.0 ug/mL of the three lots of aNRP2-36v2 antibody diluted in 5% milk 0.05% TBST. Antibody was incubated on the blots overnight at 4° C. with rocking. After overnight incubation 3 washes with 0.05% TBST for 5 minutes each were performed and goat-a-mouse HRP secondary (Jackson Immuno Research, 115-035-071) diluted at 1:5,000 in the 5% milk mixture was applied to the blots for 1 hour. […]
(In general: In western blotting, separated proteins are transferred to a membrane and probed.)

For the assay “aNRP2-36v2”, the target named is B1. In words: Western blot competition: 1 ug/mL aNRP2-36v2 with 5 ug/mL blocking peptide; the blocked detection is that of NRP2v2 (23-855) and of NRP2a isoform 2 in lysate. The method, then: The specificity of aNRP2-36v2 in Western blotting was also confirmed by the ability of the blocking peptide NRP2 (642-659) (SEQ ID NO: 25) to block binding. For these studies, 100 ng of NRP2v2 (23-855) (SEQ ID NO: 14) recombinant protein and 20 ug of total protein from cell lysates of Expi293 cells transiently expressing NRP2a isoform 2 (SEQ ID NO: 10) were denatured for 10 minutes at 70° C. with 1×LDS (ThermoFisher, NP0007) and separated on a 4-12% Bis-Tris Protein Gel (ThermoFisher, NP0335) in 1×MOPS buffer (ThermoFisher, NP000102). The gel was then transferred to a nitrocellulose membrane (Fisher, cat. #IB23001) using an iBlot2 (Fisher, cat. #IB21001) for 7 min at 20V. The membrane was blocked for 1 hour using a 5% milk 0.05% TBST solution, followed by 1 ug/mL of aNRP2-36v2 antibody with or without 5 ug/mL blocking peptide, diluted in 5% milk 0.05% TBST. A peptide corresponding to NRP2v2 (809-820) (SEQ ID NO: 26) was also used as a control. Antibody was incubated on the blots overnight at 4° C. with rocking. After overnight incubation 3 washes with 0.05% TBST for 5 minutes each were performed and goat-a-mouse HRP secondary (Jackson Immuno Research, 115-035-071) diluted at 1:5,000 in the 5% milk mixture was applied to the blots for 1 hour. This was followed by 3 more washes with 0.05% TBST for 5 minutes each. […]

aNRP2-36v2, sequence (VL, as listed by the source): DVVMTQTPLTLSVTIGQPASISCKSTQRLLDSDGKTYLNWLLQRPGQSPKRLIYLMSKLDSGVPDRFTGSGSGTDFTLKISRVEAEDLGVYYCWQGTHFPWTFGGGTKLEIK

As for B1, the binding result with NRP1v2 (22-602) is recorded as “no binding”.

B2: blocking peptide NRP2 (642-659) (peptide)
peptide: SGFNCNFDFLEEPCGWMY
notes: Peptide corresponding to residues 642-659 of NRP2
As to B2, the binding result with aNRP2-36v2 is “binds”.
